Measured values taken from US20250215097A1 (BEIJING TIANNUOJIANCHENG PHARMA TECH, published 2025).

T1: human CCR4 (human, UniProt P51679 1-360)
T1 construct: also called hCCR4; human CCR4+ cells
T1 sequence: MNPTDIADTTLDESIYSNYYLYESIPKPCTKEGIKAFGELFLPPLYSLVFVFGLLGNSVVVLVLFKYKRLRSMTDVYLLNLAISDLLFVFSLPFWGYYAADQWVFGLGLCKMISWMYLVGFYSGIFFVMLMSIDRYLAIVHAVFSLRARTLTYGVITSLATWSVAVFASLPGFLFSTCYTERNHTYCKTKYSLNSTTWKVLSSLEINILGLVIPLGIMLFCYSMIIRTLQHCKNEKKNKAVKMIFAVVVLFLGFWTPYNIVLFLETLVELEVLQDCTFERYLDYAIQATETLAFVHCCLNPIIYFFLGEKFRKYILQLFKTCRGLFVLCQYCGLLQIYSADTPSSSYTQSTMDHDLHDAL


Experiments:
human CCR8 [1] = target: T2, human CCR8 (human, UniProt P51685 1-355); experiment: cell-based or functional assay
human CCR8 [2] = target: T2, human CCR8; experiment: flow cytometry, chimeric IgG on CHO-hCCR8 cells
Experimental: 5×10⁴ CHO-hCCR8 or CHO-cynoCCR8 cells were added per well in a 96-well U-shaped plate and centrifuged to discard the supernatant, 100 μL of a gradiently diluted anti-CCR8 chimeric antibody or anti-KLH isotype control antibody was added per well and the mixture was incubated on ice for 60 minutes. After the unbound primary antibody was washed away, 50 μL of a secondary antibody AlexaFluro647 anti-human IgG (Jackson Immuno Research #109-606-170) was added per well and the mixture was incubated on ice for 30 minutes. After the washing, 50 μL of 5 μg/mL of a PI/BSA solution was added to each well and the mixture was incubated on ice for 5 minutes. Then excess secondary antibody was washed away with 0.5% BSA, the cells were resuspended by adding a PBS solution, and binding of the antibody to the cells was detected using a flow cytometer (Intellicyte iQue). The fluorescence value of a Pi-negative cell population was analyzed. Cell-binding curves were fitted by Graphpad Prism 7 (FIG. 2). The chimeric antibodies of 87D8, 102H5, 109F6, 110G2, 113B3, 139A9, 144D2, etc. all bound with high affinities to human CCR8+ cells CHO-hCCR8 and cynomolgus monkey CCR8+ cells CHO-cynoCCR8.

human CCR8 [3] = target: T2, human CCR8; experiment: flow cytometry, purified Fab on CHO-hCCR8 cells
human CCR4 = target: T1, human CCR4; experiment: flow cytometry of purified Fab on cells stably expressing human CCR4
Experimental: The positive clones obtained in example 1 were re-induced to express and purified to obtain a Fab antibody. The binding to cells stably expressing human CCR8, cynomolgus monkey CCR8 and human CCR4 was tested respectively, 5×10⁴ test cells were added to each well of a 96-well U-shaped plate and centrifuged to discard the supernatant, 100 μL/well of the purified Fab antibody was added and the mixture was incubated on ice for 60 minutes. After washing away the unbound primary antibody, 50 μL of a secondary antibody solution (Anti-human IgG, F(ab′)2-AF647, Jackson Immuno Research) was added to each well and the mixture was incubated on ice for 30 minutes. After washing, 50 μL of a PI/BSA solution at 5 μg/mL was added to each well and the mixture was incubated on ice for 5 minutes. Then excess secondary antibody was washed away with 0.5% BSA, the cells were resuspended by adding a PBS solution, and binding of the antibody to the cells was detected using a flow cytometer (Intellicyte iQue).

T2 sequence (P51685 whole entry): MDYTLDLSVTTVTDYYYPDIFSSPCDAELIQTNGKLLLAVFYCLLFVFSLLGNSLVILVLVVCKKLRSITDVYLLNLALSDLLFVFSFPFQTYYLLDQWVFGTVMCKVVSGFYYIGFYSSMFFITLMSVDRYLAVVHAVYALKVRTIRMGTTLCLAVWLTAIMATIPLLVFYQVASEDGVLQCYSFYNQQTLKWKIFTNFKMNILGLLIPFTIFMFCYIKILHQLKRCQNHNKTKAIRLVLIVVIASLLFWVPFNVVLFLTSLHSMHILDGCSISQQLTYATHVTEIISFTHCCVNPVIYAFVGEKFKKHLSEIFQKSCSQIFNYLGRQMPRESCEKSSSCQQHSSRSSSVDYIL

| EC50 (human CCR8 [3]) [nM] | Binder | also measured |
| --- | --- | --- |
|  | 29A8 anti-CCR8 chimeric antibody (antibody, V domains shown) VH: EVQLVESGGGLVQPKGSLKLSCAASGFTFNAFAMNWVRQAPGKGLEWVARIRSKSNNYATYYADSVIDRFTISRDDSQSMLYLQMNNLKTEDTAMYYCVRGKEAGAYYAMDYWGQGTSVTVSS VL: DIVMTQAAPSVPVTPGESVSISCRSSKSLLHSNGNTYLYWFLQRPGQSPQLLIYRMSNLASGVPDRFSGSGSGTAFTLRISKVEAEDVGVYYCMQHLEYPFTFGGGTKLEIK | ADCC EC50 (nM), NK92-CD16A effectors, HEK293-hCCR8 targets, LDH release (human CCR8 [1]): 0.1 nM; EC50 (human CCR8 [2]): 3.24 nM |
| 2.22 | 144D2 G34Y (Fab, V domains shown, Purified Fab mutant) VH: EVQLVESGGGLVQPKGSLKLSCAASGFTFNAFAMNWVRQAPGKGLEWVARIRSKSNNYATYYADSVIDRFTISRDDSQSMLYLQMNNLKTEDTAMYYCVRGKEAGAYYAMDYWGQGTSVTVSS VL: DIVMTQAAPSVPVTPGESVSISCRSSKSLLHSNYNTYLYWFLQRPGQSPQLLIYRMSNLASGVPDRFSGSGSGTAFTLRISRVEAEDVGVYYCMQHLEYPLTFGAGTKLEIK |  |
| 5.72 | 144D2 N33V (Fab, V domains shown, Purified Fab mutant) VH: EVQLVESGGGLVQPKGSLKLSCAASGFTFNAFAMNWVRQAPGKGLEWVARIRSKSNNYATYYADSVIDRFTISRDDSQSMLYLQMNNLKTEDTAMYYCVRGKEAGAYYAMDYWGQGTSVTVSS VL: DIVMTQAAPSVPVTPGESVSISCRSSKSLLHSVGNTYLYWFLQRPGQSPQLLIYRMSNLASGVPDRFSGSGSGTAFTLRISRVEAEDVGVYYCMQHLEYPLTFGAGTKLEIK |  |
| 1.34 | 144D2 G34R (Fab, V domains shown, Purified Fab mutant) VH: EVQLVESGGGLVQPKGSLKLSCAASGFTFNAFAMNWVRQAPGKGLEWVARIRSKSNNYATYYADSVIDRFTISRDDSQSMLYLQMNNLKTEDTAMYYCVRGKEAGAYYAMDYWGQGTSVTVSS VL: DIVMTQAAPSVPVTPGESVSISCRSSKSLLHSNRNTYLYWFLQRPGQSPQLLIYRMSNLASGVPDRFSGSGSGTAFTLRISRVEAEDVGVYYCMQHLEYPLTFGAGTKLEIK |  |
| 13.8 | 144D2 N33Y (Fab, V domains shown, Purified Fab mutant) VH: EVQLVESGGGLVQPKGSLKLSCAASGFTFNAFAMNWVRQAPGKGLEWVARIRSKSNNYATYYADSVIDRFTISRDDSQSMLYLQMNNLKTEDTAMYYCVRGKEAGAYYAMDYWGQGTSVTVSS VL: DIVMTQAAPSVPVTPGESVSISCRSSKSLLHSYGNTYLYWFLQRPGQSPQLLIYRMSNLASGVPDRFSGSGSGTAFTLRISRVEAEDVGVYYCMQHLEYPLTFGAGTKLEIK |  |
| 3.87 | 144D2 G34I (Fab, V domains shown, Purified Fab mutant) VH: EVQLVESGGGLVQPKGSLKLSCAASGFTFNAFAMNWVRQAPGKGLEWVARIRSKSNNYATYYADSVIDRFTISRDDSQSMLYLQMNNLKTEDTAMYYCVRGKEAGAYYAMDYWGQGTSVTVSS VL: DIVMTQAAPSVPVTPGESVSISCRSSKSLLHSNINTYLYWFLQRPGQSPQLLIYRMSNLASGVPDRFSGSGSGTAFTLRISRVEAEDVGVYYCMQHLEYPLTFGAGTKLEIK |  |
|  | 30A7 anti-CCR8 chimeric antibody (antibody, V domains shown) VH: QVQLVESGGGLVQPKGSLKLSCAASGFTFNTYAMNWVRQAPGKGLEWVARIRSKSNYYATYYADSVKDRFTISRDDSQSMLYLQMNNLKTEDTAMYYCLRGKEAGAYYAMDYWGQGTSVTVSS VL: DIVMTQAAPSVPVTPGESVSISCRSSKSLLHSNGNTYLYWFLQRPGQSPQLLIYRMSNLASGVPDRFSGSGSGTAFTLRISRVEAEDVGVYYCMQHLEYPFTFGAGTKLEIK | ADCC EC50 (nM), NK92-CD16A effectors, HEK293-hCCR8 targets, LDH release (human CCR8 [1]): 0.21 nM; EC50 (human CCR8 [2]): 3.39 nM |
| 4.85 | 144D2 M56G (Fab, V domains shown, Purified Fab mutant) VH: EVQLVESGGGLVQPKGSLKLSCAASGFTFNAFAMNWVRQAPGKGLEWVARIRSKSNNYATYYADSVIDRFTISRDDSQSMLYLQMNNLKTEDTAMYYCVRGKEAGAYYAMDYWGQGTSVTVSS VL: DIVMTQAAPSVPVTPGESVSISCRSSKSLLHSNGNTYLYWFLQRPGQSPQLLIYRGSNLASGVPDRFSGSGSGTAFTLRISRVEAEDVGVYYCMQHLEYPLTFGAGTKLEIK |  |
| 3.16 | 144D2 G34V (Fab, V domains shown, Purified Fab mutant) VH: EVQLVESGGGLVQPKGSLKLSCAASGFTFNAFAMNWVRQAPGKGLEWVARIRSKSNNYATYYADSVIDRFTISRDDSQSMLYLQMNNLKTEDTAMYYCVRGKEAGAYYAMDYWGQGTSVTVSS VL: DIVMTQAAPSVPVTPGESVSISCRSSKSLLHSNVNTYLYWFLQRPGQSPQLLIYRMSNLASGVPDRFSGSGSGTAFTLRISRVEAEDVGVYYCMQHLEYPLTFGAGTKLEIK |  |
| 8.27 | 144D2 N33A (Fab, V domains shown, Purified Fab mutant from E. coli TG1, Ni-NTA purified) VH: EVQLVESGGGLVQPKGSLKLSCAASGFTFNAFAMNWVRQAPGKGLEWVARIRSKSNNYATYYADSVIDRFTISRDDSQSMLYLQMNNLKTEDTAMYYCVRGKEAGAYYAMDYWGQGTSVTVSS VL: DIVMTQAAPSVPVTPGESVSISCRSSKSLLHSAGNTYLYWFLQRPGQSPQLLIYRMSNLASGVPDRFSGSGSGTAFTLRISRVEAEDVGVYYCMQHLEYPLTFGAGTKLEIK |  |
| 2.69 | 144D2 M56T (Fab, V domains shown, Purified Fab mutant) VH: EVQLVESGGGLVQPKGSLKLSCAASGFTFNAFAMNWVRQAPGKGLEWVARIRSKSNNYATYYADSVIDRFTISRDDSQSMLYLQMNNLKTEDTAMYYCVRGKEAGAYYAMDYWGQGTSVTVSS VL: DIVMTQAAPSVPVTPGESVSISCRSSKSLLHSNGNTYLYWFLQRPGQSPQLLIYRTSNLASGVPDRFSGSGSGTAFTLRISRVEAEDVGVYYCMQHLEYPLTFGAGTKLEIK |  |
|  | 87D8 Fab antibody (Fab, V domains shown, also called clone 87D8) VH: EVQLVESGGGLVQPKGSLRLSCAASGFTFNTYAMNWVRQAPGKGLEWIARIRSKSNNYATYYADSVKDRFTISRDDSQSMLYLQMNNLKTEDTAMYYCVRGKEAGAYYAMDYWGQGTSVTVSS VL: DIVMTQAAPSVPVTPGESVSISCRSSKSLLHSNGNTYLYWFLQRPGQSPQLLIYRMSNLASGVPDRFSGSGSGTAFTLRISRVEAEDVGVYYCMQHLEYPLTFGAGTKLELK | binding result (human CCR4): no binding |
| 6.68 | 144D2 N33I (Fab, V domains shown, Purified Fab mutant) VH: EVQLVESGGGLVQPKGSLKLSCAASGFTFNAFAMNWVRQAPGKGLEWVARIRSKSNNYATYYADSVIDRFTISRDDSQSMLYLQMNNLKTEDTAMYYCVRGKEAGAYYAMDYWGQGTSVTVSS VL: DIVMTQAAPSVPVTPGESVSISCRSSKSLLHSIGNTYLYWFLQRPGQSPQLLIYRMSNLASGVPDRFSGSGSGTAFTLRISRVEAEDVGVYYCMQHLEYPLTFGAGTKLEIK |  |
| 4.71 | 144D2 M56A (Fab, V domains shown, Purified Fab mutant) VH: EVQLVESGGGLVQPKGSLKLSCAASGFTFNAFAMNWVRQAPGKGLEWVARIRSKSNNYATYYADSVIDRFTISRDDSQSMLYLQMNNLKTEDTAMYYCVRGKEAGAYYAMDYWGQGTSVTVSS VL: DIVMTQAAPSVPVTPGESVSISCRSSKSLLHSNGNTYLYWFLQRPGQSPQLLIYRASNLASGVPDRFSGSGSGTAFTLRISRVEAEDVGVYYCMQHLEYPLTFGAGTKLEIK |  |
| 6.75 | 144D2 N33R (Fab, V domains shown, Purified Fab mutant) VH: EVQLVESGGGLVQPKGSLKLSCAASGFTFNAFAMNWVRQAPGKGLEWVARIRSKSNNYATYYADSVIDRFTISRDDSQSMLYLQMNNLKTEDTAMYYCVRGKEAGAYYAMDYWGQGTSVTVSS VL: DIVMTQAAPSVPVTPGESVSISCRSSKSLLHSRGNTYLYWFLQRPGQSPQLLIYRMSNLASGVPDRFSGSGSGTAFTLRISRVEAEDVGVYYCMQHLEYPLTFGAGTKLEIK |  |
| 2.83 | 144D2 G34T (Fab, V domains shown, Purified Fab mutant) VH: EVQLVESGGGLVQPKGSLKLSCAASGFTFNAFAMNWVRQAPGKGLEWVARIRSKSNNYATYYADSVIDRFTISRDDSQSMLYLQMNNLKTEDTAMYYCVRGKEAGAYYAMDYWGQGTSVTVSS VL: DIVMTQAAPSVPVTPGESVSISCRSSKSLLHSNTNTYLYWFLQRPGQSPQLLIYRMSNLASGVPDRFSGSGSGTAFTLRISRVEAEDVGVYYCMQHLEYPLTFGAGTKLEIK |  |
